The text below walks through data of patent publication US20190023791A1 (GlaxoSmithKline, published 2019).

In experiment [1] the target is T1, recombinant OX40 extracellular domain from cynomolgus monkeys (cynomolgus monkey).
T1 construct: extracellular domain; also called cynomolgus monkey OX40
Nature of the experiment: binding to recombinant OX40 extracellular domain, method not stated.

Experiment [2] deals with T2, human OX40 on cells (activated human CD4+ T cells, stimulated PBMC, lymphocytes in whole blood) (human, UniProt P43489 29-277).
T2 construct: whole, on cells; also called cell-surface OX40; human OX40 receptor on CD4+ T cells
T2 sequence (looked up): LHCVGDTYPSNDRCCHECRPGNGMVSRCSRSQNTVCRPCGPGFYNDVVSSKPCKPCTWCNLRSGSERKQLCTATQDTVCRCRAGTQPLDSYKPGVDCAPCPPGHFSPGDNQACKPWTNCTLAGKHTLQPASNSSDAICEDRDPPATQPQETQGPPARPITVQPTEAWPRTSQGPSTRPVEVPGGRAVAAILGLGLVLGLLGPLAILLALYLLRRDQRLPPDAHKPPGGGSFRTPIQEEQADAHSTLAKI
Nature of the experiment: binding to stimulated human PBMC; stimulated human PBMC; upper end of range.

The target in experiment [3] is T2, human OX40 on cells (activated human …). In words: binding to activated human CD4+ T cells; activated human CD4+ T cells.
The target in experiment [4] is T3, cynomolgus monkey OX40 on cells (activated cynomolgus monkey CD4+ T cells, OX40+ cells in peripheral blood) (cynomolgus monkey).
T3 construct: whole, on cells; also called monkey OX40 receptor on CD4+ T cells
In words: binding to activated cynomolgus monkey CD4+ T cells; activated cynomolgus monkey CD4+ T cells.

Experiment [5] concerns the target T2, human OX40 on cells (activated human …). In words: binding to stimulated human PBMC; stimulated human PBMC; lower end of range.
The target is the same in experiment [6]. In words: cell-based or functional assay.
Experiment [7] addresses T3, cynomolgus monkey OX40 on cells …. Nature of the experiment: cell-based or functional assay.
For experiment [8], the target named is T2, human OX40 on cells (activated human …). In words: unstimulated human whole-blood binding assay, lymphocytes.
Experiment [9] deals with T4, recombinant OX40 extracellular domain from humans (human, UniProt P43489 29-214).
T4 construct: extracellular domain; also called human OX40; hOX40
T4 sequence (looked up): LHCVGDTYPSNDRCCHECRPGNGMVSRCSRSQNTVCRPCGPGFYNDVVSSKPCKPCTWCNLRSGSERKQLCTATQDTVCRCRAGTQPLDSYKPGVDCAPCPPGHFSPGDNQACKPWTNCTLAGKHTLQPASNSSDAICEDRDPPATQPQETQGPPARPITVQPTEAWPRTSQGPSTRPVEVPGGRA
Nature of the experiment: binding to recombinant OX40 extracellular domain, method not stated; recombinant human OX40 extracellular domain.

Where “and” joins values, the source holds several entries; their conditions need not be identical. Equal entries are not always repeated.

B1: ANTIBODY 106-222 (antibody, human IgG1, kappa, V domains shown)
VH: QVQLVQSGSELKKPGASVKVSCKASGYTFTDYSMHWVRQAPGQGLKWMGWINTETGEPTYADDFKGRFVFSLDTSVSTAYLQISSLKAEDTAVYYCANPYYDYVSYYAMDYWGQGTTVTVSS
VL: DIQMTQSPSSLSASVGDRVTITCKASQDVSTAVAWYQQKPGKAPKLLIYSASYLYTGVPSRFSGSGSGTDFTFTISSLQPEDIATYYCQQHYSTPRTFGQGTKLEIKR
notes: also called humanized wild-type IgG1 anti-OX40 agonistic mAb
By Kd is commonly meant the equilibrium constant for the complex coming apart. What is called EC50 is the concentration that produces a half-maximal response. For B1, the Kd came out at 0.408 µM in [1] and 0.0049 µM in [9]. Besides, the EC50 in [2] was at most 0.3 mg/L; in experiment [3], 0.3 mg/L; in experiment [4], 0.35 mg/L; in experiment [5], at least 0.1 mg/L; in [8], 1.45 mg/L. In [6], the “anti-CD3 induced proliferation of activated human CD4+ T cells, mean EC50” value was 0.19 µg/mL and 1.3 nM. The “proliferation of immobilized anti-CD3 activated cynomolgus monkey CD4+ T cells, mean EC50” value in experiment [7] was 0.72 µg/mL and 4.8 nM.
